{"source": "the supplement of paper PMC11316812", "key": {"MCF7": {"system": "MCF7", "assay": "percentage of EdU-negative (G0-arrested) nuclei per well, 72 h; higher = more G0 arrest", "conditions": "reference: sequence is the full UniProt precursor, the tested protein was the secreted form or ectodomain"}, "hTERT-HMEC": {"system": "hTERT-HMEC", "assay": "percentage of EdU-negative (G0-arrested) nuclei per well, 72 h; higher = more G0 arrest", "conditions": "reference: sequence is the full UniProt precursor, the tested protein was the secreted form or ectodomain"}, "[1]": {"conditions": "protein concentration 0.0225 µM"}, "[2]": {"conditions": "protein concentration 0.0267275 µM"}, "[3]": {"conditions": "protein concentration 0.267275 µM"}, "[4]": {"conditions": "protein concentration 0.00625 µM"}, "[5]": {"conditions": "protein concentration 0.0625 µM"}}, "note": "± gives the standard deviation of the averaged measurements.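 Further: secreted proteins added to cultured cells, EdU pulse at the end, nuclei found by Hoechst imaging, EdU status from nuclear versus surrounding ring intensity ratio, PBS as neutral control.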"}
{"sequence": "MRLPLLLVFASVIPGAVLLLDTRQFLIYNEDHKRCVDAVSPSAVQTAACNQDAESQKFRWVSESQIMSVAFKLCLGVPSKTDWVAITLYACDSKSEFQKWECKNDTLLGIKGEDLFFNYGNRQEKNIMLYKGSGLWSRWKIYGTTDNLCSRGYEAMYTLLGNANGATCAFPFKFENKWYADCTSAGRSDGWLWCGTTTDYDTDKLFGYCPLKFEGSESLWNKDPLTSVSYQINSKSALTWHQARKSCQQQNAELLSITEIHEQTYLTGLTSSLTSGLWIGLNSLSFNSGWQWSDRSPFRYLNWLPGSPSAEPGKSCVSLNPGKNAKWENLECVQKLGYICKKGNTTLNSFVIPSESDVPTHCPSQWWPYAGHCYKIHRDEKKIQRDALTTCRKEGGDLTSIHTIEELDFIISQLGYEPNDELWIGLNDIKIQMYFEWSDGTPVTFTKWLRGEPSHENNRQEDCVVMKGKDGYWADRGCEWPLGYICKMKSRSQGPEIVEVEKGCRKGWKKHHFYCYMIGHTLSTFAEANQTCNNENAYLTTIEDRYEQAFLTSFVGLRPEKYFWTGLSDIQTKGTFQWTIEEEVRFTHWNSDMPGRKPGCVAMRTGIAGGLWDVLKCDEKAKFVCKHWAEGVTHPPKPTTTPEPKCPEDWGASSRTSLCFKLYAKGKHEKKTWFESRDFCRALGGDLASINNKEEQQTIWRLITASGSYHKLFWLGLTYGSPSEGFTWSDGSPVSYENWAYGEPNNYQNVEYCGELKGDPTMSWNDINCEHLNNWICQIQKGQTPKPEPTPAPQDNPPVTEDGWVIYKDYQYYFSKEKETMDNARAFCKRNFGDLVSIQSESEKKFLWKYVNRNDAQSAYFIGLLISLDKKFAWMDGSKVDYVSWATGEPNFANEDENCVTMYSNSGFWNDINCGYPNAFICQRHNSSINATTVMPTMPSVPSGCKEGWNFYSNKCFKIFGFMEEERKNWQEARKACIGFGGNLVSIQNEKEQAFLTYHMKDSTFSAWTGLNDVNSEHTFLWTDGRGVHYTNWGKGYPGGRRSSLSYEDADCVVIIGGASNEAGKWMDDTCDSKRGYICQTRSDPSLTNPPATIQTDGFVKYGKSSYSLMRQKFQWHEAETYCKLHNSLIASILDPYSNAFAWLQMETSNERVWIALNSNLTDNQYTWTDKWRVRYTNWAADEPKLKSACVYLDLDGYWKTAHCNESFYFLCKRSDEIPATEPPQLPGRCPESDHTAWIPFHGHCYYIESSYTRNWGQASLECLRMGSSLVSIESAAESSFLSYRVEPLKSKTNFWIGLFRNVEGTWLWINNSPVSFVNWNTGDPSGERNDCVALHASSGFWSNIHCSSYKGYICKRPKIIDAKPTHELLTTKADTRKMDPSKPSSNVAGVVIIVILLILTGAGLAAYFFYKKRRVHLPQEGAFENTLYFNSQSSPGTSDMKDLVGNIEQNEHSVI", "values": [{"measurement": "percentage of EdU-negative", "setting": "MCF7; protein concentration 0.007 µM", "result": "24.1 ± 0.79", "unit": "%"}, {"measurement": "percentage of EdU-negative", "setting": "MCF7; protein concentration 0.07 µM", "result": "24 ± 0.4", "unit": "%"}, {"measurement": "percentage of EdU-negative", "setting": "hTERT-HMEC; protein concentration 0.007 µM", "result": "4.48 ± 0.71", "unit": "%"}, {"measurement": "percentage of EdU-negative", "setting": "hTERT-HMEC; protein concentration 0.07 µM", "result": "5.07 ± 0.13", "unit": "%"}]}
{"sequence": "MRLPRRAALGLLPLLLLLPPAPEAAKKPTPCHRCRGLVDKFNQGMVDTAKKNFGGGNTAWEEKTLSKYESSEIRLLEILEGLCESSDFECNQMLEAQEEHLEAWWLQLKSEYPDLFEWFCVKTLKVCCSPGTYGPDCLACQGGSQRPCSGNGHCSGDGSRQGDGSCRCHMGYQGPLCTDCMDGYFSSLRNETHSICTACDESCKTCSGLTNRDCGECEVGWVLDEGACVDVDECAAEPPPCSAAQFCKNANGSYTCEECDSSCVGCTGEGPGNCKECISGYAREHGQCADVDECSLAEKTCVRKNENCYNTPGSYVCVCPDGFEETEDACVPPAEAEATEGESPTQLPSREDL [Q6UXH1]", "values": [{"measurement": "percentage of EdU-negative", "setting": "MCF7; [1]", "result": "23.9 ± 1.1", "unit": "%"}, {"measurement": "percentage of EdU-negative", "setting": "MCF7; protein concentration 0.225 µM", "result": "26 ± 1.1", "unit": "%"}, {"measurement": "percentage of EdU-negative", "setting": "hTERT-HMEC; [1]", "result": "4.4 ± 0.85", "unit": "%"}, {"measurement": "percentage of EdU-negative", "setting": "hTERT-HMEC; protein concentration 0.225 µM", "result": "6.12 ± 0.13", "unit": "%"}]}
{"sequence": "MRLPWELLVLQSFILCLADDSTLHGPIFIQEPSPVMFPLDSEEKKVKLNCEVKGNPKPHIRWKLNGTDVDTGMDFRYSVVEGSLLINNPNKTQDAGTYQCTATNSFGTIVSREAKLQFAYLDNFKTRTRSTVSVRRGQGMVLLCGPPPHSGELSYAWIFNEYPSYQDNRRFVSQETGNLYIAKVEKSDVGNYTCVVTNTVTNHKVLGPPTPLILRNDGVMGEYEPKIEVQFPETVPTAKGATVKLECFALGNPVPTIIWRRADGKPIARKARRHKSNGILEIPNFQQEDAGLYECVAENSRGKNVARGQLTFYAQPNWIQKINDIHVAMEENVFWECKANGRPKPTYKWLKNGEPLLTRDRIQIEQGTLNITIVNLSDAGMYQCLAENKHGVIFSNAELSVIAVGPDFSRTLLKRVTLVKVGGEVVIECKPKASPKPVYTWKKGRDILKENERITISEDGNLRIINVTKSDAGSYTCIATNHFGTASSTGNLVVKDPTRVMVPPSSMDVTVGESIVLPCQVTHDHSLDIVFTWSFNGHLIDFDRDGDHFERVGGQDSAGDLMIRNIQLKHAGKYVCMVQTSVDRLSAAADLIVRGPPGPPEAVTIDEITDTTAQLSWRPGPDNHSPITMYVIQARTPFSVGWQAVSTVPELIDGKTFTATVVGLNPWVEYEFRTVAANVIGIGEPSRPSEKRRTEEALPEVTPANVSGGGGSKSELVITWETVPEELQNGRGFGYVVAFRPYGKMIWMLTVLASADASRYVFRNESVHPFSPFEVKVGVFNNKGEGPFSPTTVVYSAEEEPTKPPASIFARSLSATDIEVFWASPLEKNRGRIQGYEVKYWRHEDKEENARKIRTVGNQTSTKITNLKGSVLYHLAVKAYNSAGTGPSSATVNVTTRKPPPSQPPGNIIWNSSDSKIILNWDQVKALDNESEVKGYKVLYRWNRQSSTSVIETNKTSVELSLPFDEDYIIEIKPFSDGGDGSSSEQIRIPKISNAYARGSGASTSNACTLSAISTIMISLTARSSL [Q8IWV2]", "values": [{"measurement": "percentage of EdU-negative", "setting": "MCF7; protein concentration 0.018 µM", "result": "25.6 ± 0.8", "unit": "%"}, {"measurement": "percentage of EdU-negative", "setting": "MCF7; protein concentration 0.18 µM", "result": "27 ± 1.7", "unit": "%"}, {"measurement": "percentage of EdU-negative", "setting": "hTERT-HMEC; protein concentration 0.018 µM", "result": "5.06 ± 0.29", "unit": "%"}, {"measurement": "percentage of EdU-negative", "setting": "hTERT-HMEC; protein concentration 0.18 µM", "result": "8.55 ± 0.98", "unit": "%"}]}
{"sequence": "MRLRRLALFPGVALLLAAARLAAASDVLELTDDNFESRISDTGSAGLMLVEFFAPWCGHCKRLAPEYEAAATRLKGIVPLAKVDCTANTNTCNKYGVSGYPTLKIFRDGEEAGAYDGPRTADGIVSHLKKQAGPASVPLRTEEEFKKFISDKDASIVGFFDDSFSEAHSEFLKAASNLRDNYRFAHTNVESLVNEYDDNGEGIILFRPSHLTNKFEDKTVAYTEQKMTSGKIKKFIQENIFGICPHMTEDNKDLIQGKDLLIAYYDVDYEKNAKGSNYWRNRVMMVAKKFLDAGHKLNFAVASRKTFSHELSDFGLESTAGEIPVVAIRTAKGEKFVMQEEFSRDGKALERFLQDYFDGNLKRYLKSEPIPESNDGPVKVVVAENFDEIVNNENKDVLIEFYAPWCGHCKNLEPKYKELGEKLSKDPNIVIAKMDATANDVPSPYEVRGFPTIYFSPANKKLNPKKYEGGRELSDFISYLQREATNPPVIQEEKPKKKKKAQEDL", "values": [{"measurement": "percentage of EdU-negative", "setting": "MCF7; [2]", "result": "23.5 ± 0.4", "unit": "%"}, {"measurement": "percentage of EdU-negative", "setting": "MCF7; [3]", "result": "26.1 ± 0.34", "unit": "%"}, {"measurement": "percentage of EdU-negative", "setting": "hTERT-HMEC; [2]", "result": "5.82 ± 1", "unit": "%"}, {"measurement": "percentage of EdU-negative", "setting": "hTERT-HMEC; [3]", "result": "5.84 ± 0.16", "unit": "%"}]}
{"sequence": "MRLSPAPLKLSRTPALLALALPLAAALAFSDETLDKVPKSEGYCSRILRAQGTRREGYTEFSLRVEGDPDFYKPGTSYRVTLSAAPPSYFRGFTLIALRENREGDKEEDHAGTFQIIDEEETQFMSNCPVAVTESTPRRRTRIQVFWIAPPAGTGCVILKASIVQKRIIYFQDEGSLTKKLCEQDSTFDGVTDKPILDCCACGTAKYRLTFYGNWSEKTHPKDYPRRANHWSAIIGGSHSKNYVLWEYGGYASEGVKQVAELGSPVKMEEEIRQQSDEVLTVIKAKAQWPAWQPLNVRAAPSAEFSVDRTRHLMSFLTMMGPSPDWNVGLSAEDLCTKECGWVQKVVQDLIPWDAGTDSGVTYESPNKPTIPQEKIRPLTSLDHPQSPFYDPEGGSITQVARVVIERIARKGEQCNIVPDNVDDIVADLAPEEKDEDDTPETCIYSNWSPWSACSSSTCDKGKRMRQRMLKAQLDLSVPCPDTQDFQPCMGPGCSDEDGSTCTMSEWITWSPCSISCGMGMRSRERYVKQFPEDGSVCTLPTEETEKCTVNEECSPSSCLMTEWGEWDECSATCGMGMKKRHRMIKMNPADGSMCKAETSQAEKCMMPECHTIPCLLSPWSEWSDCSVTCGKGMRTRQRMLKSLAELGDCNEDLEQVEKCMLPECPIDCELTEWSQWSECNKSCGKGHVIRTRMIQMEPQFGGAPCPETVQRKKCRIRKCLRNPSIQKLRWREARESRRSEQLKEESEGEQFPGCRMRPWTAWSECTKLCGGGIQERYMTVKKRFKSSQFTSCKDKKEIRACNVHPC [Q9HCB6]", "values": [{"measurement": "percentage of EdU-negative", "setting": "MCF7; [4]", "result": "24.6 ± 2.6", "unit": "%"}, {"measurement": "percentage of EdU-negative", "setting": "MCF7; [5]", "result": "24.8 ± 1.8", "unit": "%"}, {"measurement": "percentage of EdU-negative", "setting": "hTERT-HMEC; [4]", "result": "4.65 ± 0.17", "unit": "%"}, {"measurement": "percentage of EdU-negative", "setting": "hTERT-HMEC; [5]", "result": "6.96 ± 0.65", "unit": "%"}]}
{"sequence": "MRLSVRRVLLAAGCALVLVLAVQLGQQVLECRAVLAGLRSPRGAMRPEQEELVMVGTNHVEYRYGKAMPLIFVGGVPRSGTTLMRAMLDAHPEVRCGEETRIIPRVLAMRQAWSKSGREKLRLDEAGVTDEVLDAAMQAFILEVIAKHGEPARVLCNKDPFTLKSSVYLSRLFPNSKFLLMVRDGRASVHSMITRKVTIAGFDLSSYRDCLTKWNKAIEVMYAQCMEVGKEKCLPVYYEQLVLHPRRSLKLILDFLGIAWSDAVLHHEDLIGKPGGVSLSKIERSTDQVIKPVNLEALSKWTGHIPGDVVRDMAQIAPMLAQLGYDPYANPPNYGNPDPFVINNTQRVLKGDYKTPANLKGYFQVNQNSTSSHLGSS", "values": [{"measurement": "percentage of EdU-negative", "setting": "MCF7; [1]", "result": "26.7 ± 0.75", "unit": "%"}, {"measurement": "percentage of EdU-negative", "setting": "MCF7; protein concentration 0.225 µM", "result": "30.1 ± 1.8", "unit": "%"}, {"measurement": "percentage of EdU-negative", "setting": "hTERT-HMEC; [1]", "result": "5.18 ± 0.23", "unit": "%"}, {"measurement": "percentage of EdU-negative", "setting": "hTERT-HMEC; protein concentration 0.225 µM", "result": "36.4 ± 2.8", "unit": "%"}]}
{"sequence": "MRLSWFRVLTVLSICLSAVATATGAEGKRKLQIGVKKRVDHCPIKSRKGDVLHMHYTGKLEDGTEFDSSLPQNQPFVFSLGTGQVIKGWDQGLLGMCEGEKRKLVIPSELGYGERGAPPKIPGGATLVFEVELLKIERRTEL", "values": [{"measurement": "percentage of EdU-negative", "setting": "MCF7; [1]", "result": "25.5 ± 0.037", "unit": "%"}, {"measurement": "percentage of EdU-negative", "setting": "MCF7; protein concentration 0.225 µM", "result": "29.219 ± 0.017", "unit": "%"}, {"measurement": "percentage of EdU-negative", "setting": "hTERT-HMEC; [1]", "result": "4.9 ± 1.4", "unit": "%"}, {"measurement": "percentage of EdU-negative", "setting": "hTERT-HMEC; protein concentration 0.225 µM", "result": "6.25 ± 0.1", "unit": "%"}]}
